Measured values reported in the supplement of paper PMC10567573.

B1: PHTF1 (parent)
chain: RVKLISNKGTETDNDPSCVHPIIK
B2: CHCHD6 (parent)
chain: MYKLSSEQFHEAASKMESTIKPRR

Variants of: B1
Assay: protein stability index of a GFP-peptide fusion (GPS, HEK-293T) (PSI 1-6); higher = more stable
Details: c terminus: a fixed tail appended
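Further: lentivirally expressed fusions sorted by FACS into six bins by GFP to DsRed ratio, PSI derived from sequencing read proportions per bin multiplied by bin number.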

Protein stability index, by site and new letter:
H20: K 4.38, E 4.76, R 4.26, Y 3.91, F 3.42, P 4.02, L 3.95, I 3.6, Q 4.61, G 4.43, N 4.15, M 4.22, W 3.32, A 4.3, S 4.11, C 3.94, T 4.49, D 4.46, V 3.86
K24: C 3.36, R 4.09, H 4.11, S 3.82, F 2.33, V 3.17, A 3.54, M 3, G 3.76, N 4.26, E 4.13, Y 2.79, D 4.22, T 3.68, L 2.67, W 2.73, P 4.27, I 2.49, Q 3.74
V19: T 4.36, S 4.47, W 3.19, R 4.21, Y 3.86
I22: K 4.32, N 4.5, W 3.68, L 4.22, V 4.4, R 4.53, G 4.48, Y 4.23, E 4.38, Q 4.22, H 4.78, C 3.84, D 4.63, P 4.67, A 4.42, F 3.88, T 4.51, S 4.6, M 3.51
I23: S 4.37, Q 4.64, G 4.49, C 4.67, M 4.19, W 3.52, L 4.47, E 4.82, N 4.59, K 4.74, H 4.74, F 4.02, R 4.6, V 3.85, P 4.69, Y 4.16, D 4.82, A 4.59, T 4.57
P21: L 2.3, K 3.84, D 3.95, R 4, C 2.75, A 3.72, W 3.13, M 3.06, N 3.61, F 2.73, H 4.03, E 4.03, Q 3.82, T 3.87, V 3.46, G 4.08, S 3.89, I 2.1, Y 3.4

Variants of: B2
Assay: as above
Details: c terminus: a fixed tail appended

Protein stability index, by site and new letter:
A13: G 3.83, F 2.88, I 2.93, H 3.9, E 4.33, D 4.25, C 3.33
S6: Y 3.39, V 3.1, T 4.18, C 3.52, D 4.03, M 3.74, H 3.53, R 3.39, L 3.03, G 4.26, E 3.53, I 2.64, W 2.62, A 3.64, P 3.78, F 3.46, K 3.93, N 4.23, Q 4.25
M1: D 5.02, S 4, A 3.87, E 4.44, P 4.36, L 3.06, H 4.18, K 4.13, C 3.59, F 3.7, Y 3.56, G 4.53, N 4.37, V 4.03, W 3.36, T 4.12, R 4.33, I 3.41, Q 4.24
Q8: I 2.84, A 4.25, T 4.16, K 3.84, M 3.39, E 3.75, F 2.65, S 3.74, W 2.5, C 2.96, P 4.39, L 3.22, G 3.35, H 3.22, D 3.73, R 3.86, V 3.49, N 3.86, Y 2.94
S5: Y 2.72, H 4.14, E 4.24
